Experimental data published in paper PMC9292375, “Structural basis of an epitope tagging system derived from Haloarcula marismortui bacteriorhodopsin I D94N and its monoclonal antibody GD‐26” (The Febs Journal, 2021).
“And” between values parts separate entries of the source, which are not always exact repeats. Equal entries are not always repeated.

Columns and labels:
Assay in all cases: ITC; synthetic peptide in the syringe titrated into GD-26 Fab or GD-26 IgG (10 μM) in the cell; 25 °C; 50 mM Tris, 150 mM NaCl, pH 7.5; one-set-of-sites model
Conditions in all cases: both partners purified
[1] = target: T1, TD peptide (GTGATPADD), peptide V from the C terminus of HmBRI D94N (Haloarcula marismortui HmBRI C terminus …)
T1 construct: nine residues at the C terminus of Haloarcula marismortui bacteriorhodopsin I (HmBRI); residue numbers 1-9 count on: the TD peptide; also called TD tag; wild-type TD peptide; source: synthetic peptide
T1 chain: GTGATPADD

TD peptide A7H = target: T2, TD peptide A7H (A7H (stands in the printed letters))
T2 construct: TD peptide (C terminus of HmBRI) with A7H; numbers count on: the TD peptide; source: synthetic peptide
T2 chain: GTGATPHDD

[2] = target: T3, TD peptide M1 (Met attached to the N terminus) (Haloarcula marismortui HmBRI C-terminal …)
T3 construct: TD peptide (C terminus of HmBRI) with one Met attached before Gly1; source: synthetic peptide
T3 chain: MGTGATPADD

TD peptide A7Y = target: T4, TD peptide A7Y (A7Y (stands in the printed letters))
T4 construct: TD peptide (C terminus of HmBRI) with A7Y; numbers count on: the TD peptide; source: synthetic peptide
T4 chain: GTGATPYDD

[3] = target: T5, TD peptide N4 (Gly1 to Ala4 deleted) (Haloarcula marismortui (strain ATCC …))
T5 construct: TD peptide residues 5-9 (Gly1, Thr2, Gly3 and Ala4 deleted); numbers count on: the TD peptide; source: synthetic peptide
T5 chain: TPADD

TD peptide A7S = target: T6, TD peptide A7S (A7S (stands in the printed letters))
T6 construct: TD peptide (C terminus of HmBRI) with A7S; numbers count on: the TD peptide; source: synthetic peptide
T6 chain: GTGATPSDD

TD peptide A7Q = target: T7, TD peptide A7Q (A7Q (stands in the printed letters))
T7 construct: TD peptide (C terminus of HmBRI) with A7Q; numbers count on: the TD peptide; source: synthetic peptide
T7 chain: GTGATPQDD

Kd [1]: 19.8 nM and 19.4 nM
dH [1]: -13.4 kcal/mol
stoichiometry N [1]: 0.93 sites
Kd (TD peptide A7H): 94 nM
Kd [2]: 25.1 nM
Kd (TD peptide A7Y): 73.4 nM
binding result [3]: no binding
Kd (TD peptide A7S): 72.7 nM
Kd (TD peptide A7Q): 59.3 nM
B1: GD-26 Fab (antigen-binding fragment of monoclonal antibody GD-26) (Fab, V domains shown)
VH: QVQLRQSGPELVKPGASVKMSCRASGYTFTNYNIHWVRQRPGQGLEWIGWIYPVDGTTKYNEKFKDKTTLTSDKSSSTAYMSLSGLTSEDSAIYFCARGLDNWGQGTSVTVSS
VL: DVVLTQTPLSLSVTIGQPASISCRSSQRLLYSNGKTYLNWFQQRPGQAPKYLMFQVSKLGPGIPARFSGSGSETDFTLKISRVEAEDLGVYYCFQGTFFPHTFGGGTKLEMK
notes: Fab heavy chain of GD-26; whole chain in PDB 7DOH; light chain of GD-26; the Fab was secreted; source: Expi293F, transient co-transfection, secreted; purified (HisTrap Excel, Superdex 200 gel filtration)
